Tests used:
Assay in all cases: tandem affinity purification with Western blot
[1] = molecular target: TAP-tagged Spt7 (S. cerevisiae) (UniProt P35177)
[2] = molecular target: TAP-tagged Esa1 (S. cerevisiae) (UniProt Q08649)
[3] = molecular target: TAP-tagged Ada2 (S. cerevisiae) (UniProt Q02336)
Chain of UniProt Q02336 (Q02336 whole entry): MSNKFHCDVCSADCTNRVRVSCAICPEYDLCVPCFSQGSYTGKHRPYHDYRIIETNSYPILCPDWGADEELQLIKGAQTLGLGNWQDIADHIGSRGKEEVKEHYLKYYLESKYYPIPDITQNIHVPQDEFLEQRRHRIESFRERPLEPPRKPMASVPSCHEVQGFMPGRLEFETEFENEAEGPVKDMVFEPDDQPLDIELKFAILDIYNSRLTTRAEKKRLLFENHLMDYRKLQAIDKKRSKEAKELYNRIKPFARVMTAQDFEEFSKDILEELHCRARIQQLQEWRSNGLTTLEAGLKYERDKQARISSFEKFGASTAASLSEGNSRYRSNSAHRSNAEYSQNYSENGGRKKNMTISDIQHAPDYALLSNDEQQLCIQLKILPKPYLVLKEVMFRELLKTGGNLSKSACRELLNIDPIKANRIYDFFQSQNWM

Chain of UniProt P35177 (P35177 whole entry): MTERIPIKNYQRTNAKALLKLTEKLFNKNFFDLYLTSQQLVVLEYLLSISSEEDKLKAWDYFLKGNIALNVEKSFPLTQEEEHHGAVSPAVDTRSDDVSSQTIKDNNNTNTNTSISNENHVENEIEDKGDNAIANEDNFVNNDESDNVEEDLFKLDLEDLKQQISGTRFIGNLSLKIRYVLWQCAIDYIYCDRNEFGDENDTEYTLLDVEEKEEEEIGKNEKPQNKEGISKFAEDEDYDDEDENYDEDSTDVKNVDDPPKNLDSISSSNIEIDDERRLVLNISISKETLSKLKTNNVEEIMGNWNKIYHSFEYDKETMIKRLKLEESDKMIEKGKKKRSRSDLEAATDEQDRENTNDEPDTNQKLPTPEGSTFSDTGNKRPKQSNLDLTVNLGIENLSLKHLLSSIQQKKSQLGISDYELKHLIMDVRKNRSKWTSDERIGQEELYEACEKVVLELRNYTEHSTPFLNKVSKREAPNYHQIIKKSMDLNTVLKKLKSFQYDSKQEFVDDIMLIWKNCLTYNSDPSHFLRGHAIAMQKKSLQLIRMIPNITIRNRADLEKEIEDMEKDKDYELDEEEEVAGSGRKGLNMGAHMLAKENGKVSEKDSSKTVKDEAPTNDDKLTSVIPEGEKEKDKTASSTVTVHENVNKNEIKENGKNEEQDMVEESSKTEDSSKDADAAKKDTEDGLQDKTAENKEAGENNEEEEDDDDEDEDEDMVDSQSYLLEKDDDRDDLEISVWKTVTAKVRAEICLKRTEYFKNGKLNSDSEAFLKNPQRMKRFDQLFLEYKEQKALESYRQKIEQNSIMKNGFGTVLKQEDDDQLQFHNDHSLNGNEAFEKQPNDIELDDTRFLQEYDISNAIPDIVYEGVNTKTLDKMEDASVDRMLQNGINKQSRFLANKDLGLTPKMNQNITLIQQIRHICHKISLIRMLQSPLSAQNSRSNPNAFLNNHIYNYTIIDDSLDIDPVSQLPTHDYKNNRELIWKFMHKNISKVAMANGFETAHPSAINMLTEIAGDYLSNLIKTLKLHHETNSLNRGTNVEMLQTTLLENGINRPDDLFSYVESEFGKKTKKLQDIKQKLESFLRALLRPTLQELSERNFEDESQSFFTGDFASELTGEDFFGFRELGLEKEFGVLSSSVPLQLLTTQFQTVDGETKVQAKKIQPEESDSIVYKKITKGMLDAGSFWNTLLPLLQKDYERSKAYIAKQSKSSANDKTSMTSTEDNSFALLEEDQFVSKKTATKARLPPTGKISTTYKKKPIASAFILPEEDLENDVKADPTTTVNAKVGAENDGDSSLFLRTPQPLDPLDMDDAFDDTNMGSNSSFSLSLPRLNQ
Chain of UniProt Q08649 (Q08649 whole entry): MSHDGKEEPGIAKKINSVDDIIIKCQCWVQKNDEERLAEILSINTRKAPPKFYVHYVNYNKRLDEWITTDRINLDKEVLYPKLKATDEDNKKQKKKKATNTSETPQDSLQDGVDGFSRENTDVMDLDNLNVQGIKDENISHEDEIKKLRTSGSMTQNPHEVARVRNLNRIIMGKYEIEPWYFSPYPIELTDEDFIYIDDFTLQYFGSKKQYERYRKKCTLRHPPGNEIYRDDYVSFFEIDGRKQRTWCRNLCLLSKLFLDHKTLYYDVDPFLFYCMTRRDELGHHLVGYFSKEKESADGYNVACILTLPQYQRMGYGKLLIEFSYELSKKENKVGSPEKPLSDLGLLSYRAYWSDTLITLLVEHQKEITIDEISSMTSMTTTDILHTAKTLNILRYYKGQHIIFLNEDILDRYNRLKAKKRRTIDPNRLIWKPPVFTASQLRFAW

amount co-purifying, percent of that found for wild-type Tra1 [1]: < 5%
amount co-purifying, percent of that found for wild-type Tra1 [2]: < 5%
interaction against wild-type Tra1, percent (reduced to or by is not clear) [3]: 70%
Substance: myc9-Tra1-G3745, P38811 1-3744
